In patent US6884879:
Residue numbers refer to the chain shown, from its start.

Assays:
VEGF [1] = molecular target: T1, VEGF (human, UniProt P15692-4 27-191, limits assumed); experiment: competition ELISA: biotinylated VEGF preincubated with IgG, capture on KDR-IgG, 10% human serum
T1 construct: also called human VEGF; biotinylated VEGF
Protocol: (§1) Diluted conditioned medium containing 3 ng/ml of KDR-IgG (Park et al., J. Biol. Chem. 269:25646–[…] (1994)) in blocking buffer were incubated on the plate for 1 h. […] The solutions from the tubes were then transferred to the ELISA plates and incubated for 1 h. […] Titration curves were fit with a four-parameter nonlinear regression curve-fitting program (KaleidaGraph, Synergy Software, Reading Pa.). […] Assays for full-length IgG were the same as for the F(ab)s except that the assay buffer contained 10% human serum.
[c]murIgG1 is muMAbVEGF A461 purified from ascites.

VEGF [2] = molecular target: T1, VEGF; experiment: competition ELISA: biotinylated VEGF preincubated with F(ab), capture on KDR-IgG
Protocol: as §1

VEGF [3] = molecular target: T1, VEGF; experiment: competition ELISA (VEGF/KDR-IgG)
Protocol: as §1

VEGF121 [4] = molecular target: T2, VEGF121 (human, UniProt P15692-9 27-147); experiment: BIAcore SPR, VEGF121 immobilized, Fab in solution
T2 construct: also called Purified VEGF121
T2 sequence (looked up): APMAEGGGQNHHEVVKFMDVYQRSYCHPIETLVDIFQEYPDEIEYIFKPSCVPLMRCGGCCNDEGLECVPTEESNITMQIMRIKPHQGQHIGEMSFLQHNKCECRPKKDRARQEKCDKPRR
Protocol: (§2) Binding of humanized A4.6.1 Fab variants was measured by flowing solutions of Fab in PBS/0.05% TWEEN 20™ over the chip at a flow rate of 20 μL/min. Following each binding measurement, residual Fab was stripped from the immobilized ligand by washing with 5 μL of 50 mM aqueous HCl at 3 μL/min. Binding profiles were analyzed by nonlinear regression using a simple monovalent binding model (BIAevaluation software v2.0; Pharmacia).

VEGF121 [5] = molecular target: T2, VEGF121; experiment: BIAcore SPR, VEGF121 immobilized
Protocol: as §2

rhVEGF165 = rhVEGF165 (human, UniProt P15692 27-191, limits assumed); experiment: cell-based or functional assay

B1: chimeric IgG1 (antibody, V domains shown)
VH: EIQLVQSGPELKQPGETVRISCKASGYTFTNYGMNWVKQAPGKGLKWMGWINTYTGEPTYAADFKRRFTFSLETSASTAYLQISNLKNDDTATYFCAKYPHYYGSSHWYFDVWGAGTTVTVSS
VL: DIQMTQTTSSLSASLGDRVIISCSASQDISNYLNWYQQKPDGTVKVLIYFTSSLHSGVPSRFSGSGSGTDYSLTISNLEPEDIATYYCQQYSTVPWTFGGGTKLEIKR
notes: Murine A4.6.1 VL and VH fused to human kappa CL and human IgG1 heavy chain constant domains; also called chIgG1; chlgG1
IgG1/chlgG1 (ratio of EC50) (VEGF [1]): 1 ratio

B2: muMAb VEGF A.4.6.1 (antibody, V domains shown)
VH: B1 VH
VL: B1 VL
notes: Original murine IgG1 purified from ascites; also called murIgG1; murlgG1
IgG1/chlgG1 (ratio of EC50) (VEGF [1]): 0.759 ratio

B3: F(ab)-4 (Fab, V domains shown)
VH: EVQLVESGGGLVQPGGSLRLSCAASGYTFTNYGMNWVRQAPGKGLEWVGWINTYTGEPTYAADFKRRFTISLDTSKNTLYLQMNSLRAEDTAVYYCARYPHYYGSSHWYFDVWGQGTLVTVSS
VL: DIQMTQSPSSLSASVGDRVTITCSASQDISNYLNWYQQKPGKAPKLLIYFTSSLHSGVPSRFSGSGSGTDFTLTISSLQPEDFATYYCQQYSTVPWTFGQGTKVEIK
notes: F(ab)-1 with ArgH71Leu and AsnH73Thr; human CL and CH1
EC50 F(ab)-X / EC50 chimeric F(ab) (VEGF [2]): > 295 ratio | fold improvement of binding against F(ab)-1 (VEGF [3]): 4 fold

B4: hu2.10 (Fab, V domains shown)
VH: B3 VH with V37I, K76A, N77S, L79V, R98K
VL: B3 VL with F71Y
notes: Phage-selected consensus clone, tested as soluble Fab; also called consensus clone hu2.10
KD(A4.6.1)/KD(mut) as headed; fold weaker than the A4.6.1 chimera (VEGF121 [4]): 35 ratio

B5: F(ab)-3 (Fab, V domains shown)
VH: B1 VH
VL: B3 VL
EC50 F(ab)-X / EC50 chimeric F(ab) (VEGF [2]): 2.6 ratio

B6: hu2.10V (Fab, V domains shown)
VH: B3 VH with V37I, K76A, N77S, L79V, R98K
VL: B3 VL with L46V, F71Y
notes: hu2.10 with Leu to Val at VL 46; soluble Fab
KD(A4.6.1)/KD(mut) as headed; fold weaker than the A4.6.1 chimera (VEGF121 [4]): 5.8 ratio | fold improvement of KD against hu2.10 (VEGF121 [5]): 6 fold

B7: Y0313-1 (Fab, V domains shown)
VH: EVQLVESGGGLVQPGGSLRLSCAASGYDFTHYGMNWVRQAPGKGLEWVGWINTYTGEPTYAADFKRRFTFSLDTSKSTAYLQMNSLRAEDTAVYYCAKYPYYYGTSHWYFDVWGQGTL
VL: DIQLTQSPSSLSASVGDRVTITCRANEQLSNYLNWYQQKPGKAPKVLIYFTSSLHSGVPSRFSGSGSGTDFTLTISSLQPEDFATYYCQQYSTVPWTFGQGTKVEIKR
potency in the HuVEC assay against the wild-type Fab (Y0192) (rhVEGF165): 30 fold
